Laboratory results from FireProtDB (doi:10.1002/pro.5560050915).

B1: Adrenodoxin, mitochondrial, P00257 (parent)
chain: MAARLLRVASAALGDTAGRWRLLARPRAGAGGLRGSRGPGLGGGAVATRTLSVSGRAQSSSEDKITVHFINRDGETLTTKGKIGDSLLDVVVQNNLDIDGFGACEGTLACSTCHLIFEQHIFEKLEAITDEENDMLDLAYGLTDRSRLGCQICLTKAMDNMTVRVPDAVSDARESIDMGMNSSKIE

Variants of: B1
Conditions: Bos taurus, pH 8.5, Thermal, DSC, ascorbate 1 mM, structure 1AYF, whole UniProt chain shown; for ddG of mutation (higher = less stable) / unfolding free energy: 37 °C

| Variant | ddG of mutation (higher = less stable) [kJ/mol] | unfolding free energy [kJ/mol] | Tm [°C] | change of melting temperature, mutant - wild type (higher = more stable) [°C] | heat capacity change of unfolding [kcal/mol/K] | unfolding enthalpy (calorimetric) [kJ/mol] |
| --- | --- | --- | --- | --- | --- | --- |
| D134E | -1.88 | 15.2 | 53.4 | 2.01 | 2.45 | 363 |
| Y140W | 0.879 | 12.4 | 51.7 | 0.31 | 1.87 | 329 |
| Y140L | 1.51 | 11.8 | 50.7 | -0.69 | 1.92 | 330 |
| Y140S |  |  | 50.6 | -0.79 | 1.96 | 334 |
| Y140F | 0.0418 | 13.3 | 51.5 | 0.11 | 1.8 | 350 |
| C153S |  |  | 55.8 | 4.36 | 1.62 | 374 |
| H114R | 4.85 | 8.45 | 49.3 | -2.11 | 1.03 | 249 |
| H114Q |  |  | 46.5 | -4.94 | 1.7 | 249 |
| H114T | 4.98 | 8.33 |  |  |  |  |
| T112S | -0.209 | 13.5 | 51.6 | 0.21 | 1.91 | 354 |
| T112A | 5.48 | 7.82 | 47.1 | -4.29 | 1.63 | 285 |
